In patent US20210355194A1 (TWIST BIOSCIENCE, published 2021):
Where two headings read alike, the source gives them in different places.

What was measured:
[1] = target: T1, Acro SARS-CoV-2 (COVID-19) S1 protein (SARS-CoV-2, UniProt P0DTC2 16-685); test: SPR
T1 construct: also called SARS-CoV-2 S1

[2] = target: T2, SARS-COV2-S1 RBD (mouse IgG2Fc tag) (SARS-CoV-2, UniProt P0DTC2 319-537); test: FACS, blocks S1 RBD-mFc binding to ACE2 on Vero E6
[3] = target: T2, SARS-COV2-S1 RBD (mouse IgG2Fc tag); test: column not explained; likely FACS, S1 RBD on Vero E6
human ACE2 = human ACE2 (human, UniProt Q9BYF1 18-740)
Sequence of human ACE2 (Q9BYF1 18-740 limits assumed): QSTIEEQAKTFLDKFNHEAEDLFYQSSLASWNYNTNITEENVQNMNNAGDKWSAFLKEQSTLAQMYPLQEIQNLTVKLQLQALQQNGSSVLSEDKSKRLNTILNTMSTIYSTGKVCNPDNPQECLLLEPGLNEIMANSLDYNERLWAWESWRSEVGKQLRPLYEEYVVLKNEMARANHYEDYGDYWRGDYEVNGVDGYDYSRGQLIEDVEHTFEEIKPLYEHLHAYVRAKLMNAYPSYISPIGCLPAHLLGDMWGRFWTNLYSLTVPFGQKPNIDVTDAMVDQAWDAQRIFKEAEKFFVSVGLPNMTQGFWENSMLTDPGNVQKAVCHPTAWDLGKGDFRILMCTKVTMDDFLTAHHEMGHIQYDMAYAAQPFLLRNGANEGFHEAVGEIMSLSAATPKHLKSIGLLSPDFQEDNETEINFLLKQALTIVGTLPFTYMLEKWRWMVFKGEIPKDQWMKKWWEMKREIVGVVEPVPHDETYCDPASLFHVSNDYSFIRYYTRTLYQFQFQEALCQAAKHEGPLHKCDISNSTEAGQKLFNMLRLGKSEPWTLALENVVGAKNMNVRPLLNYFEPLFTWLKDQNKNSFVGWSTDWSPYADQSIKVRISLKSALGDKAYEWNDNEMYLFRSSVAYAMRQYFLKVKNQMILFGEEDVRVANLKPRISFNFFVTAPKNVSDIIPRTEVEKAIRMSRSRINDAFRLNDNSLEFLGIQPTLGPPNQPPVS

[4] = target: T2, SARS-COV2-S1 RBD (mouse IgG2Fc tag)
[5] = target: SARS-CoV-2 spike on live SARS-CoV-2 virus (SARS-CoV-2, UniProt P0DTC2 14-1273); test: cell-based or functional assay
[6] = target: T3, Acro SARS-CoV-2 (COVID-19) S1 protein (SARS-CoV-2, UniProt P0DTC2 16-685); test: SPR; remark: listed apart in the source
T3 construct: also called SARS-CoV-2 S1

[7] = target: SARS-COV2-S1 RBD (mouse IgG2Fc tag) (SARS-CoV-2, UniProt P0DTC2 319-537); test: FACS, S1 RBD-mFc on Vero E6 (ACE2)
[8] = target: SARS-CoV-2 S1 (subunit 1) protein (SARS-CoV-2, UniProt P0DTC2 16-685); test: phage ELISA
[9] = target: T4, COVID S1 RBD Fc fusion (Antigen 1) (SARS-CoV-2, UniProt P0DTC2 319-541); test: phage ELISA
T4 construct: domain: S1 RBD

S1-Fc = target: T5, S1-Fc (SARS-CoV-2, UniProt P0DTC2 14-685); test: phage ELISA
T5 construct: also called S1 Fc fusion protein

[10] = target: T6, COVID S1 RBM Fc fusion (Antigen 2) (SARS-CoV-2, UniProt P0DTC2 437-508); test: phage ELISA
T6 construct: domain: S1 RBM

Binder	Kd [1] [nM]	IC50 [2] [nM]	MFI Fold Decrease [3] [fold]	IC50 [4] [nM]	further results
variant 6-55 (Fc fusion) VHH: EVQLVESGGGLVQPGGSLRLSCAASGFTMSSSWMGWFRQAPGKEREFVARITSGGSTGYADSVKGRFTISADNSKNTAYLQMNSLKPEDTAVYYCASVDGYFDYWGQGTLVTVSS	25.2	0.97	7.98	–	–
4-121 (VHH) VHH: EVQLVESGGGLVQPGGSLRLSCAASGTAASFNPMGWFRQAPGKEREFVAAITSGGSTNYADSVKGRFTISADNSKNTAYLQMNSLKPEDTAVYYCAAIAYEEGVYRWDWGQGTLVTVSS	–	–	–	–	IC50 (human ACE2): 0.91 nM
4-49 (VHH) VHH: EVQLVESGGGLVQPGGSLRLSCAASGRTFGDYIMGWFRQAPGKERESVAAINWSAGYTAYADSVKGRFTISADNSKNTAYLQMNSLKPEDTAVYYCARASPNTGWHFDHWGQGTLVTVSS	–	–	–	–	IC50 (human ACE2): 58 nM
variant 6-20 (Fc fusion) VHH: EVQLVESGGGLVQPGGSLRLSCAASGSTLPYHAMGWFRQAPGKEREFVAAITWNGASTSYADSVKGRFTISADNSKNTAYLQMNSLKPEDTAVYYCARDRYYDTSASYFESETWGQGTLVTVSS	20.9	0.76	9.95	–	–
variant 5-47 (Fc fusion) VHH: EVQLVESGGGLVQPGGSLRLSCAASGFTFGSYDMGWFRQAPGKEREFVTAINWSGARTAYADSVKGRFTISADNSKNTAYLQMNSLKPEDTAVYYCAARSVYSYEYNWGQGTLVTVSS	27.7	–	–	0.8	EC80 [5]: 2.46 µg/mL
variant 6-60 (Fc fusion) VHH: EVQLVESGGGLVQPGGSLRLSCAASGDTYGSYWMGWFRQAPGKEREFVATISQSGAATAYADSVKGRFTISADNSKNTAYLQMNSLKPEDTAVYYCAGLLRYSGTYYDAFDVWGQGTLVTVSS	20.1	1.31	12.6	–	–
variant 5-60 (Fc fusion) VHH: EVQLVESGGGLVQPGGSLRLSCAASGRSFSSHRMGWFRQAPGKEREFVAAIMWSGSHRNYADSVKGRFTISADNSKNTAYLQMNSLKPEDTAVYYCAAIAYEEGVYRWDWGQGTLVTVSS	29.4	–	–	2.15	–
variant 5-49 (Fc fusion) VHH: EVQLVESGGGLVQPGGSLRLSCAASGRTSTVNGMGWFRQAPGKEREFVASISQSGAATAYADSVKGRFTISADNSKNTAYLQMNSLKPEDTAVYYCAADRTYSYSSTGYYWGQGTLVTVSS	–	–	–	5.61	–
variant 6-76 (Fc fusion) VHH: EVQLVESGGGLVQPGGSLRLSCAASGLAFDFDGMGWFRQAPGKEREGVAAINSGGSTYYADSVKGRFTISADNSKNTAYLQMNSLKPEDTAVYYCARFFRAHDYWGQGTLVTVSS	33.5	1.11	9.96	–	–
variant 6-78 (Fc fusion, VHH-Fc) VHH: EVQLVESGGGLVQPGGSLRLSCAASGRTYDAMGWFRQAPGKEREFVASVTSGGYTHYADSVKGRFTISADNSKNTAYLQMNSLKPEDTAVYYCAKFGRKIVGATELDYWGQGTLVTVSS	–	–	–	–	Kd [6]: 18.9 nM; Competition Factor [7]: 9.27
variant 6-78 (Fc fusion) VHH: EVQLVESGGGLVQPGGSLRLSCAASGRTYDAMGWFRQAPGKEREFVASVTSGGYTHYADSVKGRFTISADNSKNTAYLQMNSLKPEDTAVYYCAKFGRKIVGATELDYWGQGTLVTVSS	18.9	0.743	9.27	–	–
variant 5-55 (Fc fusion) VHH: EVQLVESGGGLVQPGGSLRLSCAASGIDVNRNAMGWFRQAPGKEREFVAAITWSGGWRYYADSVKGRFTISADNSKNTAYLQMNSLKPEDTAVYYCATTFGDAGIPDQYDFGWGQGTLVTVSS	–	–	–	1.45	–
variant 6-26 (Fc fusion) VHH: EVQLVESGGGLVQPGGSLRLSCAASGDTFSTSWMGWFRQAPGKEREFVATINTGGGTNYADSVKGRFTISADNSKNTAYLQMNSLKPEDTAVYYCARVTTSFDYWGQGTLVTVSS	38.7	1.07	6.41	–	–
variant 5-67 (Fc fusion) VHH: EVQLVESGGGLVQPGGSLRLSCAASGFNVNDYAMGWFRQAPGKEREFVAGITSSVGVTNYADSVKGRFTISADNSKNTAYLQMNSLKPEDTAVYYCAADIFFVNWGRGTLVTVSS	22.1	–	–	0.76	EC80 [5]: 1.57 µg/mL
variant 5-15 (Fc fusion) VHH: EVQLVESGGGLVQPGGSLRLSCAASGFTFDGAAMGWFRQAPGKEREFVATIRWTNSTDYADSVKGRFTISADNSKNTAYLQMNSLKPEDTAVYYCARGRYGIVERWGQGTLVTVSS	–	–	–	2.19	–
variant 2-4 (antibody, V domains shown) VH: EVQLLESGGGLVQPGGSLRLSCAASGFTFSDFAMAWVRQAPGKGLEWVSAISGSGDITYYADSVKGRFTISRDNSKNTLYLQMNSLRAEDTAVYYCAREADGLHSPWHFDLWGQGTLVTVSS VL: DIQMTQSPSSLSASVGDRVTITCRASQSIDTYLNWYQQKPGKAPKLLIYAASALASGVPSRFSGSGSGTDFTLTISSLQPEDFATYYCQQSYSAPPYTFGQGTKVEIK	–	–	–	–	screening ELISA (Avg), fold over background [8]: 15.5 fold over background; specificity ELISA, fold over background [9]: 38.8 fold over background; specificity ELISA, percent binding relative to Acro S1 [9]: 103%; specificity ELISA, fold over background (S1-Fc): 7.2 fold over background; specificity ELISA, percent binding relative to Acro S1 (S1-Fc): 19%; specificity ELISA, fold over background [10]: 1.2 fold over background; specificity ELISA, percent binding relative to Acro S1 [10]: 3.1%
4-52 (VHH) VHH: EVQLVESGGGLVQPGGSLRLSCAASGRSFSNSVMGWFRQAPGKEREFVARITWNGGSTYYADSVKGRFTISADNSKNTAYLQMNSLKPEDTAVYYCATTENPNPRWGQGTLVTVSS	–	–	–	–	IC50 (human ACE2): 0.35 nM
variant 5-29 (Fc fusion) VHH: EVQLVESGGGLVQPGGSLRLSCAASGFTFDDYPMGWFRQAPGKEREGVASVLRGGYTWYADSVKGRFTISADNSKNTAYLQMNSLKPEDTAVYYCAKDWATGLAWGQGTLVTVSS	–	–	–	2.19	–
variant 6-73 (Fc fusion) VHH: EVQLVESGGGLVQPGGSLRLSCAASGHTFSGYAMGWFRQAPGKEREFVAVITREGSTYYADSVKGRFTISADNSKNTAYLQMNSLKPEDTAVYYCARLGGEGFDYWGQGTLVTVSS	103	1.01	7.99	–	–
variant 5-56 (Fc fusion) VHH: EVQLVESGGGLVQPGGSLRLSCAASGRTFSSNMGWFRQAPGKEREFVARIFGGDRTLYADSVKGRFTISADNSKNTAYLQMNSLKPEDTAVYYCADINGDWGQGTLVTVSS	54.3	–	–	0.68	EC80 [5]: 105 µg/mL
